This passage reports binding result, Kd and EC50 results from PMC7049810, “Outer membrane lipoprotein NlpI scaffolds peptidoglycan hydrolases within multi‐enzyme complexes in Escherichia coli” (The EMBO Journal, 2020).

B1: LpoA, purified (natural protein, Escherichia coli, UniProt P45464 27-678, looked up)
chain: CGTHTPDQSTAYMQGTAQADSAFYLQQMQQSSDDTRINWQLLAIRALVKEGKTGQAVELFNQLPQELNDAQRREKTLLAVEIKLAQKDFAGAQNLLAKITPADLEQNQQARYWQAKIDASQGRPSIDLLRALIAQEPLLGAKEKQQNIDATWQALSSMTQEQANTLVINADENILQGWLDLQRVWFDNRNDPDMMKAGIADWQKRYPNNPGAKMLPTQLVNVKAFKPASTNKIALLLPLNGQAAVFGRTIQQGFEAAKNIGTQPVAAQVAAAPAADVAEQPQPQTVDGVASPAQASVSDLTGEQPAAQPVPVSAPATSTAAVSAPANPSAELKIYDTSSQPLSQILSQVQQDGASIVVGPLLKNNVEELLKSNTPLNVLALNQPENIENRVNICYFALSPEDEARDAARHIRDQGKQAPLVLIPRSSLGDRVANAFAQEWQKLGGGTVLQQKFGSTSELRAGVNGGSGIALTGSPITLRATTDSGMTTNNPTLQTTPTDDQFTNNGGRVDAVYIVATPGEIAFIKPMIAMRNGSQSGATLYASSRSAQGTAGPDFRLEMEGLQYSEIPMLAGGNLPLMQQALSAVNNDYSLARMYAMGVDAWSLANHFSQMRQVQGFEINGNTGSLTANPDCVINRNLSWLQYQQGQVVPVS
modifications: where used as the labelled protein in MST: NT647 RED-Maleimide dye on cysteines
notes: called LpoA^sol in the TPase methods; also called LpoA^sol; fl-LpoA; source: purified as described previously in Jean et al (2014)
B5: PBP4, native, purified (enzyme, Escherichia coli, UniProt P24228 21-477, looked up)
chain: ANVDEYITQLPAGANLALMVQKVGASAPAIDYHSQQMALPASTQKVITALAALIQLGPDFRFTTTLETKGNVENGVLKGDLVARFGADPTLKRQDIRNMVATLKKSGVNQIDGNVLIDTSIFASHDKAPGWPWNDMTQCFSAPPAAAIVDRNCFSVSLYSAPKPGDMAFIRVASYYPVTMFSQVRTLPRGSAEAQYCELDVVPGDLNRFTLTGCLPQRSEPLPLAFAVQDGASYAGAILKDELKQAGITWSGTLLRQTQVNEPGTVVASKQSAPLHDLLKIMLKKSDNMIADTVFRMIGHARFNVPGTWRAGSDAVRQILRQQAGVDIGNTIIADGSGLSRHNLIAPATMMQVLQYIAQHDNELNFISMLPLAGYDGSLQYRAGLHQAGVDGKVSAKTGSLQGVYNLAGFITTASGQRMAFVQYLSGYAVEPADQRNRRIPLVRFESRLYKDIYQNN
modifications: where used as the labelled protein in MST: NT647 RED-NHS dye on amines
notes: PBP4 (DD-endopeptidase) of E. coli, 'native PBP4' purified after Kishida et al (2006); Untagged ('native'); source: E. coli BL21 (λDE3), purified (HiTrap Q, hydroxyapatite, Superdex 200)

What all share (conditions): both partners purified
For test [1], the target named is T1, pre-formed NlpI-PBP4 complex (Escherichia coli, UniProt P0AFB1 20-294; P24228 21-477).
T1 construct: NlpI of E. coli, soluble version lacking its membrane anchor, as the chain of m1; PBP4 of E. coli, native, as the chain of m5; NlpI 3 μM with excess PBP4 30 μM for assays with labelled MepS or LpoA; PBP4 0.5 μM with NlpI 1 μM for assays with labelled PBP1A; also called PBP4‐NlpI complex; PBP4‐NlpI; source: pre-formed from purified NlpI and purified PBP4, on ice for 10 min
T1 sequence (P0AFB1 20-294, one chain of several): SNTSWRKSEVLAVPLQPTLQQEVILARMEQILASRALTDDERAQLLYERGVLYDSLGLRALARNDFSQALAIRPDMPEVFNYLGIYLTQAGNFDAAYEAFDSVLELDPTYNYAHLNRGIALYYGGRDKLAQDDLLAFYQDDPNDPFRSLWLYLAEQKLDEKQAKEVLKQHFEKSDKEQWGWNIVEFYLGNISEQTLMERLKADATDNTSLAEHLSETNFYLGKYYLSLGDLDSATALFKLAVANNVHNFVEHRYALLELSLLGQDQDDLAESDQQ
Put plainly: MST; fixed ligand concentration assay: labelled MepS, LpoA or PBP1A with fixed unlabelled NlpI, PBP4, PBP7 or pre-formed complexes (NlpI 3 μM with 30 μM PBP4 or PBP7 for fl-MepS and fl-LpoA; PBP4 0.5 μM with NlpI 1 μM for fl-PBP1A); FNorm, or raw fluorescence for LpoA.

The target of test [2] is T2, PBP1A, purified (Escherichia coli, UniProt P02918 1-850, NT647 RED-NHS dye on amines (PBP1A was the labelled protein in all MST assays)).
T2 construct: Bifunctional peptidoglycan synthase PBP1A of E. coli; also called fl-PBP1A (fluorescently labelled); source: purified as described previously in Born et al (2006)
T2 sequence (looked up): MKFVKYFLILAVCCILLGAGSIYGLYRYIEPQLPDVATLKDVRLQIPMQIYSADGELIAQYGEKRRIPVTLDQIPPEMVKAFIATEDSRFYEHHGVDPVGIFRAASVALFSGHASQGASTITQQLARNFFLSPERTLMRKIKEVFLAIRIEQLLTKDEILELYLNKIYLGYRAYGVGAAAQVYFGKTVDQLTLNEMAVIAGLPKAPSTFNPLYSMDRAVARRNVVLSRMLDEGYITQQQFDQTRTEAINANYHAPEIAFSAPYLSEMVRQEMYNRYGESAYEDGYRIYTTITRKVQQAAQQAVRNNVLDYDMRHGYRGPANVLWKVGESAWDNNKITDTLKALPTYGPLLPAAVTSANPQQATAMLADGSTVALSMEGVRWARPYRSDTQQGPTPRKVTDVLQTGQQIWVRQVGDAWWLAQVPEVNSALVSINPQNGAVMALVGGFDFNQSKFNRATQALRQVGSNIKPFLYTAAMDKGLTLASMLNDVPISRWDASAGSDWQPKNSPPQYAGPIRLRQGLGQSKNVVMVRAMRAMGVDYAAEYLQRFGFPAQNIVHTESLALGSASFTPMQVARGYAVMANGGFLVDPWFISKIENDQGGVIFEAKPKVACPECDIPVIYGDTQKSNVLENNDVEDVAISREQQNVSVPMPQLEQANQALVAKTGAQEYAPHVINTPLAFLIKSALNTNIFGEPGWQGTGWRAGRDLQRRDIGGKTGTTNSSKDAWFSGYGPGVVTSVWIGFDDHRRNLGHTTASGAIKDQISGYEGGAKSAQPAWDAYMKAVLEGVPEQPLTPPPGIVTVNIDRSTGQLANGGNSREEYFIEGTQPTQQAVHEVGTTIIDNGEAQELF
The experiment in a line: MST; titration: NT647-labelled protein against a two-fold serial dilution (16 steps) of unlabelled ligand; 25 mM HEPES/NaOH, 150 mM NaCl, 0.05% Triton X-100, pH 7.5; Monolith NT.115; apparent constants; for NlpI with itself: dimer to monomers.

In test [3] the target is T3, NlpI, soluble version lacking its membrane anchor (Escherichia coli, UniProt P0AFB1 20-294, where used as fl-NlpI in MST: NT647 RED-NHS dye on amines).
T3 construct: Outer membrane lipoprotein NlpI of E. coli, soluble version lacking its membrane anchor; Homodimer by AUC; also called fl-NlpI (fluorescently labelled); His-NlpI; source: E. coli BL21 (λDE3), purified (HisTrap HP, Superdex 200)
T3 sequence (P0AFB1 20-294): as the sequence (P0AFB1 20-294, one chain of several) above
The test is described as above.

The target in test [4] is B5. The experiment in a line: MST + pull-down; endopeptidases tested against each other, 'a combination of MST and Ni2+-NTA pull-down assays'; all combinations of MepM, MepS, PBP4, PBP7.
In test [5] the target is B1. Put plainly: MST; titration: NT647-labelled protein against a two-fold serial dilution (16 steps) of unlabelled ligand; 25 mM HEPES/NaOH, 150 mM NaCl, 0.05% Triton X-100, pH 7.5; Monolith NT.115; apparent constants; for NlpI with itself: dimer to monomers.

As to B1, in test [1], the binding result was “binds”.

B2: MepS(C68A), catalytically inactive MepS (enzyme, Escherichia coli, UniProt P0AFV4 27-188, looked up)
chain: CSANNTAKNMHPETRAVGSETSSLQASQDEFENLVRNVDVKSRIMDQYADWKGVRYRLGGSTKKGIDASGFVQRTFREQFGLELPRSTYEQQEMGKSVSRSNLRTGDLVLFRAGSTGRHVGIYIGNNQFVHASTSSGVIISSMNEPYWKKRYNEARRVLSRS
notes: Peptidoglycan endopeptidase MepS of E. coli with C68A; the results call it MepS; source: E. coli BL21 (λDE3), purified (HisTrap HP, Superdex 200)
With B2, the Kd in test [2] turned out to be 91 nM.

B3: MepS (enzyme, Escherichia coli, UniProt P0AFV4 27-188, looked up)
chain: CSANNTAKNMHPETRAVGSETSSLQASQDEFENLVRNVDVKSRIMDQYADWKGVRYRLGGSTKKGIDCSGFVQRTFREQFGLELPRSTYEQQEMGKSVSRSNLRTGDLVLFRAGSTGRHVGIYIGNNQFVHASTSSGVIISSMNEPYWKKRYNEARRVLSRS
modifications: where used as fl-MepS in MST: NT647 RED-NHS dye on amines
notes: Peptidoglycan endopeptidase MepS of E. coli, from pET21b-MepS-His (Singh et al, 2012); Construct from Singh et al, 2012; The methods list only MepS(C68A) as an unlabelled MST ligand; wild-type MepS is the labelled protein; also called fl-MepS (fluorescently labelled); MepS-His; source: E. coli BL21 (λDE3), purified (HisTrap HP, Superdex 200)
With B3, the Kd in test [3] was 145 nM.

B4: PBP7, purified (enzyme, Escherichia coli, UniProt P0AFI5 26-310, looked up)
chain: KTAAATTASQPEIASGSAMIVDLNTNKVIYSNHPDLVRPIASISKLMTAMVVLDARLPLDEKLKVDISQTPEMKGVYSRVRLNSEISRKDMLLLALMSSENRAAASLAHHYPGGYKAFIKAMNAKAKSLGMNNTRFVEPTGLSVHNVSTARDLTKLLIASKQYPLIGQLSTTREDMATFSNPTYTLPFRNTNHLVYRDNWNIQLTKTGFTNAAGHCLVMRTVINNKPVALVVMDAFGKYTHFADASRLRTWIETGKVMPVPAAALSYKKQKAAQMAAAGQTAQND
modifications: where used as the labelled protein in MST: NT647 RED-NHS dye on amines
notes: PBP7 (DD-endopeptidase) of E. coli; source: E. coli BL21 (λDE3), purified (HisTrap HP, Superdex 200)
For B4, the binding result in test [4] is “binds”. Moreover, in test [3], the EC50 (in general, the concentration giving half of the maximal effect) is 422 nM. Further, the Kd in test [5] is 217 nM; in test [2] it was 101 nM.

Take B5: the figures for the Kd in test [5] and in test [2] were 315 nM and 106 nM, respectively.
